From patent publication US20050282743A1, “Molecular interactions in cells” (Arbor Vita Corporation, priority 2001, published 2005)
Structures can show the parent of a compound that is named as a salt. Each block holds one compound with its values, some of them ahead of it. Ends that are not written are not given here. * marks the point of attachment. Biotin = O=C1N[C@H]2[C@H](CS[C@H]2CCCCC(=O)*)N1

What was measured:
Assay type in all cases: binding
[1] = target: T1, PDZ protein (GST-PDZ fusion) (Homo sapiens, UniProt O14907); assay: G' assay (10 uM PL peptide), results of TABLE 7 and TABLE 12; conditions: PDZ TIP1, PDZ Domain 1
T1 construct: made in house; host or cells: E. coli (DH5alpha, BL21 or JM109)
T1 sequence (O14907 1-124): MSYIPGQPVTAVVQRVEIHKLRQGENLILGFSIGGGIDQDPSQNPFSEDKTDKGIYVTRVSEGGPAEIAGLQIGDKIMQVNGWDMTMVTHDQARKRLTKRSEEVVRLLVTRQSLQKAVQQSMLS
Outline: (§1)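 Binding classes derive from A450 nm of bound biotin-tagged PL peptide. A score of 5 needs A450 above 4 in more than two repeats.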

[2] = target: T2, PDZ protein (GST-PDZ fusion) (Homo sapiens, UniProt O15021); assay: as above; conditions: PDZ KIAA0303, PDZ Domain 1
T2 construct: made in house; host or cells: E. coli (DH5alpha, BL21 or JM109)
Outline: as §1

[3] = target: T3, PDZ protein (GST-PDZ fusion) (Homo sapiens, UniProt P78352); assay: as above; conditions: PDZ PSD95, PDZ Domain 1, 2, 3
T3 construct: made in house; host or cells: E. coli (DH5alpha, BL21 or JM109)
T3 sequence (P78352 whole entry, the tested form may be a part): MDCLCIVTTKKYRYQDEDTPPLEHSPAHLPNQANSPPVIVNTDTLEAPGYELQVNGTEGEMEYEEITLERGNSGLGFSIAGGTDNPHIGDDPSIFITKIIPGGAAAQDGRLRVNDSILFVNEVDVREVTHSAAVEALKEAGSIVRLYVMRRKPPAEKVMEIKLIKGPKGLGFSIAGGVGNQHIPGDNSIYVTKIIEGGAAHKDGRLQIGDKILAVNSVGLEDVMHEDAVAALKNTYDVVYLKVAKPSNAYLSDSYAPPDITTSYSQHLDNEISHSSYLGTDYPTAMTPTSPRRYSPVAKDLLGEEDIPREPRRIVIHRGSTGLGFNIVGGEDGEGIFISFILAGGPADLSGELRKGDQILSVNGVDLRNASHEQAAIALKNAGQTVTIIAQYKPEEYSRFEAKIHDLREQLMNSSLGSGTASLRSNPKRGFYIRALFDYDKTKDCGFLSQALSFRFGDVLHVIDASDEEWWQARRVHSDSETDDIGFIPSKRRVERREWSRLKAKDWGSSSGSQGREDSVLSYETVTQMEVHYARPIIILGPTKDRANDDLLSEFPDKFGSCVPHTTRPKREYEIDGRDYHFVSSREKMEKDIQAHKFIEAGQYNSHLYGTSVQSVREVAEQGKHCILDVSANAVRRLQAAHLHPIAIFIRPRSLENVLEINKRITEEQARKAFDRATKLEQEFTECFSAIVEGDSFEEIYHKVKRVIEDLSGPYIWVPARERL
Outline: as §1

[4] = target: T4, PDZ protein (GST-PDZ fusion) (Homo sapiens, UniProt Q6P0Q8); assay: as above; conditions: PDZ KIAA807
T4 construct: made in house; host or cells: E. coli (DH5alpha, BL21 or JM109)
T4 sequence (Q6P0Q8 whole entry, the tested form may be a part): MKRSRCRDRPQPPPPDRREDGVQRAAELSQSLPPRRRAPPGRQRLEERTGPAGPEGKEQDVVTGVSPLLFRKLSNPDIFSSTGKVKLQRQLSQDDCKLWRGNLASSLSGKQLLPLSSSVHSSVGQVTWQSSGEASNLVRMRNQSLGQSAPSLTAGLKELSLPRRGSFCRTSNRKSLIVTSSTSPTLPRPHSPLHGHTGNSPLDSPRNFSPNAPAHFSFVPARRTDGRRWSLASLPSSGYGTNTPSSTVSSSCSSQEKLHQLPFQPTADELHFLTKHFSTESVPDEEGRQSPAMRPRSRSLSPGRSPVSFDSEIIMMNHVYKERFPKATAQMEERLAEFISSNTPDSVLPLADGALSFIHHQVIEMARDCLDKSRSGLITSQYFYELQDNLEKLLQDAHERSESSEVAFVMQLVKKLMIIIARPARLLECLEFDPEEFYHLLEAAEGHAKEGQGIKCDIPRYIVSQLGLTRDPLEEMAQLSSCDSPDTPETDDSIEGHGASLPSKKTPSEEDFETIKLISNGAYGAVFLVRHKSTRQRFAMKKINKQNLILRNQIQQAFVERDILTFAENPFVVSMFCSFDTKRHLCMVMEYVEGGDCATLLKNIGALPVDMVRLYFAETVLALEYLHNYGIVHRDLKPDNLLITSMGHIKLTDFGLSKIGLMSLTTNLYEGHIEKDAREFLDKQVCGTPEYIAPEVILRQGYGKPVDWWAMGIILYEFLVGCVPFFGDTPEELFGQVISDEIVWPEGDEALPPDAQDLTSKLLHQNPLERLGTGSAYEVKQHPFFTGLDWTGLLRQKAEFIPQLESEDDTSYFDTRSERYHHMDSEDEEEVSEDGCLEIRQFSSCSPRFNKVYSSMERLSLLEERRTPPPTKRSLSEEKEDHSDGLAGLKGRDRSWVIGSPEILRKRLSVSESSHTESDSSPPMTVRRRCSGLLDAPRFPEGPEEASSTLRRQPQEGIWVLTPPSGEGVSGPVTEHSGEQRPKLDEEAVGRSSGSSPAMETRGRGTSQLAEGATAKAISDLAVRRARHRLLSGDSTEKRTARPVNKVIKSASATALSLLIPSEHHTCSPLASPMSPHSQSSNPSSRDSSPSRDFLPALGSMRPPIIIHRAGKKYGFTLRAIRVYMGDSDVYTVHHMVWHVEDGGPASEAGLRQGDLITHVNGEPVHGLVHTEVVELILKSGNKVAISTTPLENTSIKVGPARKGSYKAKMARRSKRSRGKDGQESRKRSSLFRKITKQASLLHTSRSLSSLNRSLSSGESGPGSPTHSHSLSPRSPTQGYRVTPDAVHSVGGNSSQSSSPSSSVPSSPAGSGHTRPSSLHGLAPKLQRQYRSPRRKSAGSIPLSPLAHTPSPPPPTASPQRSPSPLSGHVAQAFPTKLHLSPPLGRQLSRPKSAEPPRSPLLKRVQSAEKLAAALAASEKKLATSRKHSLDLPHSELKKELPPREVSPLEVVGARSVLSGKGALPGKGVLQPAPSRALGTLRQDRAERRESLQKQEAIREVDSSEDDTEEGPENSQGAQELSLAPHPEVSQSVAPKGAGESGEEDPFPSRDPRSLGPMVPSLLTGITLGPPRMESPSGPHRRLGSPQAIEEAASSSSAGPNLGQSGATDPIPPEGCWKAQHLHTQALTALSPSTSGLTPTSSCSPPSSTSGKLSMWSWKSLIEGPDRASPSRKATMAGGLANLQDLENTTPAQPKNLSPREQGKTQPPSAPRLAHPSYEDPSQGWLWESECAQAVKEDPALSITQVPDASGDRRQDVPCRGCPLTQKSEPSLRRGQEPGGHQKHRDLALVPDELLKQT
Outline: as §1

[5] = system: PDZ protein (GST-PDZ fusion); assay: as above
Outline: as §1

[6] = target: T5, PDZ protein (GST-PDZ fusion) (Homo sapiens, UniProt Q12923); assay: as above; conditions: PDZ PTPL-1, PDZ Domain 2
T5 construct: made in house; host or cells: E. coli (DH5alpha, BL21 or JM109)
T5 sequence (Q12923 whole entry, the tested form may be a part): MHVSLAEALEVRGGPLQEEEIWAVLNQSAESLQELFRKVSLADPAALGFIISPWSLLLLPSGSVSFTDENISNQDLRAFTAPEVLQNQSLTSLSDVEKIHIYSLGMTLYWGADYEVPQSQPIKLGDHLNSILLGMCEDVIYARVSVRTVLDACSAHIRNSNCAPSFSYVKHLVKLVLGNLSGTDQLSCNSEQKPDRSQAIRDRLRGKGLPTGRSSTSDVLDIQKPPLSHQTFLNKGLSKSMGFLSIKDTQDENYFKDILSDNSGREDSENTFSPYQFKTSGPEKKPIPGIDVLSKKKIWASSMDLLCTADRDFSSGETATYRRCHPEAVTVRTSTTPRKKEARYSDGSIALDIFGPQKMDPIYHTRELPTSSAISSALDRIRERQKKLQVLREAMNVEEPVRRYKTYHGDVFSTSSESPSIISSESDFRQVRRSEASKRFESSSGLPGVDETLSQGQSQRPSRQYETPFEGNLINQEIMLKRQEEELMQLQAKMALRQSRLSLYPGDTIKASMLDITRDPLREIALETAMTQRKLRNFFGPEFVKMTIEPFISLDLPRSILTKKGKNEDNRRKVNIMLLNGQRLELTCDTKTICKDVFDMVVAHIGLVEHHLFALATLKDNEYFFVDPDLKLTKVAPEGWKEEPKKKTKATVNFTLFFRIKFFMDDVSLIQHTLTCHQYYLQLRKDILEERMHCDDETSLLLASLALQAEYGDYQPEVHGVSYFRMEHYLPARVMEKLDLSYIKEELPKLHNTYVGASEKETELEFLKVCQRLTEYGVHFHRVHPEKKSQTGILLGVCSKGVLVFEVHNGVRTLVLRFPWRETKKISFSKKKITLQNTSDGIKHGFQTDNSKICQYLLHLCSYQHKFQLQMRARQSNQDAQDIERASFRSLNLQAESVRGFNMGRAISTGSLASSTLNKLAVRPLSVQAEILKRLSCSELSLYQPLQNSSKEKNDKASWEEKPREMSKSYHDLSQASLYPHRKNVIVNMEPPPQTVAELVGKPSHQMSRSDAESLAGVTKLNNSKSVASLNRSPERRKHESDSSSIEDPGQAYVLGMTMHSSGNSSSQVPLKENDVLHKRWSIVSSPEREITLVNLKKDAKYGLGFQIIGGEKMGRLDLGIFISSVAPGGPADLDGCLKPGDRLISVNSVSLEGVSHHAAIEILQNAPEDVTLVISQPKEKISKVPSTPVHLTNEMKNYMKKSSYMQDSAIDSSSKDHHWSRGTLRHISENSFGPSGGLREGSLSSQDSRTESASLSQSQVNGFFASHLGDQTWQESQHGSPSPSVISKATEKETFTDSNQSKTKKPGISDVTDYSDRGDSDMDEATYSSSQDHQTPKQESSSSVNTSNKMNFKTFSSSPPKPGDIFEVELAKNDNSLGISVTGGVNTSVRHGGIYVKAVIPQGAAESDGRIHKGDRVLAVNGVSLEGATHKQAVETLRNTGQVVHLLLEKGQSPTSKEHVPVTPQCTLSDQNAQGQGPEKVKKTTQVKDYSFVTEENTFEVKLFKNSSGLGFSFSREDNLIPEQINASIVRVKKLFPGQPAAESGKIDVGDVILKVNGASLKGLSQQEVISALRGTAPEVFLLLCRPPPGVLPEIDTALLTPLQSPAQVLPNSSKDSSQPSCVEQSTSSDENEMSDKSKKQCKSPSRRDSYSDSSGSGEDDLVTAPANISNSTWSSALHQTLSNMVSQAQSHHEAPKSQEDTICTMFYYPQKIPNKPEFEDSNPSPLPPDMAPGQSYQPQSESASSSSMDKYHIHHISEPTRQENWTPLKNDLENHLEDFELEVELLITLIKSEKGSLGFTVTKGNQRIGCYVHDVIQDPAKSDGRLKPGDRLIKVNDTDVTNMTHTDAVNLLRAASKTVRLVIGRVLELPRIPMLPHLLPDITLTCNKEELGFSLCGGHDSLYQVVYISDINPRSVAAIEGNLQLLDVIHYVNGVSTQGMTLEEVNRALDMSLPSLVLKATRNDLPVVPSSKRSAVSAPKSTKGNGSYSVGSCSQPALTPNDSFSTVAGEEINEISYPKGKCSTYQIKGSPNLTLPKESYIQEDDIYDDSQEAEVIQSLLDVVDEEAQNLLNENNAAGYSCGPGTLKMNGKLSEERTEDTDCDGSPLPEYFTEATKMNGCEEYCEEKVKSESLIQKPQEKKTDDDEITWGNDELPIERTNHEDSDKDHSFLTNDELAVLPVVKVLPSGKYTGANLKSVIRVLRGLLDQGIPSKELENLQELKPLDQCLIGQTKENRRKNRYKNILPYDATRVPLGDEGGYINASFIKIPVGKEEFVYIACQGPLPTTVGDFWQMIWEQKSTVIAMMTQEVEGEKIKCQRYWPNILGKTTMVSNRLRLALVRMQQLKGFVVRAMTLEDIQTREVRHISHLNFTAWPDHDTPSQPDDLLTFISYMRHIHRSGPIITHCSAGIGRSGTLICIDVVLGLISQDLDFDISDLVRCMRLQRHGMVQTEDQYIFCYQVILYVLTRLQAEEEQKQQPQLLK
Outline: as §1

[7] = target: T6, PDZ protein (GST-PDZ fusion) (Homo sapiens, UniProt Q5TCQ9); assay: as above; conditions: PDZ KIAA1634, PDZ Domain 2
T6 construct: made in house; host or cells: E. coli (DH5alpha, BL21 or JM109)
T6 sequence (Q5TCQ9 1-1481): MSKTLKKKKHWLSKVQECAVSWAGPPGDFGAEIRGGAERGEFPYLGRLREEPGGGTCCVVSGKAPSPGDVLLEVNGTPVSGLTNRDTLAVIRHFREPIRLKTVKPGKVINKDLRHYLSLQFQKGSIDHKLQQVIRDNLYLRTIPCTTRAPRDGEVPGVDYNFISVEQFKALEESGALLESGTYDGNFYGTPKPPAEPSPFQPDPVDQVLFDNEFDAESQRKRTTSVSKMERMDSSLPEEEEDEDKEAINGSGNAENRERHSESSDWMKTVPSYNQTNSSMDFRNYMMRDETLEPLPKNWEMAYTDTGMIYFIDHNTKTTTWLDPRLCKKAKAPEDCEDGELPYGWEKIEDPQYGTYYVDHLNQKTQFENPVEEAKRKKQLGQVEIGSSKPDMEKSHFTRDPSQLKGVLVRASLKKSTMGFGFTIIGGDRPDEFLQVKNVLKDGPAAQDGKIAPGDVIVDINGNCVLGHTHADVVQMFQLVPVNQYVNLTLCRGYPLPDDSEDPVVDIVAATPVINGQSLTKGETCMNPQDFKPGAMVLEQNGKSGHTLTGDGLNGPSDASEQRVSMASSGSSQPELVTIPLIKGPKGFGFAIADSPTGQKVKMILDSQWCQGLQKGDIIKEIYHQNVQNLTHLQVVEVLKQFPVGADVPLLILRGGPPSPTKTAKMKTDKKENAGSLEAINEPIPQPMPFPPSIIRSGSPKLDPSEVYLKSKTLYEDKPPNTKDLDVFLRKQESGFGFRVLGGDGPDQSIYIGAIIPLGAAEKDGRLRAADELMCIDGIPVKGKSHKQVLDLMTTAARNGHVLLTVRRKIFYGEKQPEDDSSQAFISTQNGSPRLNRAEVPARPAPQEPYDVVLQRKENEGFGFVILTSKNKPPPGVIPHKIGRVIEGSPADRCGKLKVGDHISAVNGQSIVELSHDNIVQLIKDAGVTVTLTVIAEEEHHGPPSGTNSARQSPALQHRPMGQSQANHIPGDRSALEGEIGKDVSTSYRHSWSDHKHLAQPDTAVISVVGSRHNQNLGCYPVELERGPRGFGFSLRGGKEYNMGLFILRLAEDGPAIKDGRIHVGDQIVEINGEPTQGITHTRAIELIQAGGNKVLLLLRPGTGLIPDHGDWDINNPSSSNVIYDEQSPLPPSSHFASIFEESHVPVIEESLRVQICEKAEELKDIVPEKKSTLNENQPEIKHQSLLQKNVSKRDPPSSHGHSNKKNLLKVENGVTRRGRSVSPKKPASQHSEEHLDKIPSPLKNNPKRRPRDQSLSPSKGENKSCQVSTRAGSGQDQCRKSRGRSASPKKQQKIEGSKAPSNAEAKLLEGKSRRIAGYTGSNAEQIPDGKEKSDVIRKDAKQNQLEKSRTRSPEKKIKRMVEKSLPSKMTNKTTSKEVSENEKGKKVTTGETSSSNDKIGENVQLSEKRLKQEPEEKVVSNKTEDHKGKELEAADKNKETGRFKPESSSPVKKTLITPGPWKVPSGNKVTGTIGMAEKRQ
Outline: as §1

[8] = target: T7, DLG1 (PDZ Domain 1, 2) (Homo sapiens, UniProt Q12959); assay: G' assay, TABLE 12; conditions: A450 nm class of biotinylated PL peptide bound; 0 in conc columns = peptide 10 uM, protein 5 ug/ml
T7 construct: made in house; host or cells: E. coli (DH5alpha, BL21 or JM109)
Experimental: (§2) The third column labeled “Peptide Optimal Concentration” in the tables is a number reflective of the binding interaction between the PL protein and PDZ protein. […] The column labeled “Protein Optimal Concentration” refers to the protein concentration used to assay PL interaction (in ug/ml); a ‘0’ is indicative of 5 ug/ml protein concentration; any other value represents the concentration (in ug/ml) used to determine the dissociation constant for a given interaction.
(§3) Finally, the seventh column labeled “Classification” is another measure of the level of binding. In particular, it provides an absorbance value at 450 nm which indicates the amount of PL peptide bound to the PDZ protein. The following numerical values have the following meanings: ‘1’—A450 nm 0-1; ‘2’—A450 nm 1-2; ‘3’—A450 nm 2-3; ‘4’—A450 nm 3-4; ‘5’—A450 nm of 4 more than 2× repeated; ‘0’—A450 nm 0, i.e., not found to interact. Thus, higher numbers indicate stronger interactions.
(§4) For convenience, the assay conditions described in this section are referred to as the “G′ assay” and the “G″ assay,” with the specific conditions described in the preceding section on G assays being referred to as the “G^0 assay.” The “G′ assay” is identical to the “G^0 assay” except at step (2) the peptide concentration is 10 uM instead of 20 uM. […] Correspondingly, it slightly increases the certainty that detected interactions are of sufficient affinity and half-life to be of biological importance and useful therapeutic targets.

[9] = target: T8, NeDLG (PDZ Domain 1, 2) (Homo sapiens, UniProt Q92796); assay: G' assay, TABLE 12; conditions: A450 nm class of biotinylated PL peptide bound; 0 in conc columns = peptide 10 uM, protein 5 ug/ml
T8 construct: When more than one PDZ domain was cloned, the DNA portion cloned represents the PDZ domains and the cDNA portion located between individual domains; made in house; host or cells: E. coli (DH5alpha, BL21 or JM109)
T8 sequence (Q92796 129-315 limits assumed): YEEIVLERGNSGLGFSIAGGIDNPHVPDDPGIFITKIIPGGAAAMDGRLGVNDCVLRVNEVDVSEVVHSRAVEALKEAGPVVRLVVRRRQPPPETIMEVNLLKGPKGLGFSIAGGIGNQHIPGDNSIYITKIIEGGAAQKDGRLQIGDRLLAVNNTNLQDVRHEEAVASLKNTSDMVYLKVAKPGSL
Experimental: as §2, §3, §4

[10] = target: T9, PSD95 (PDZ Domain 1, 2, 3) (Homo sapiens, UniProt P78352); assay: G' assay, TABLE 12; conditions: A450 nm class of biotinylated PL peptide bound; 0 in conc columns = peptide 10 uM, protein 5 ug/ml
T9 construct: When more than one PDZ domain was cloned, the DNA portion cloned represents the PDZ domains and the cDNA portion located between individual domains; made in house; host or cells: E. coli (DH5alpha, BL21 or JM109)
Experimental: as §2, §3, §4

[11] = system: hSyntenin : Presenilin (115L); assay: G assay with FDA approved drug (Example 7, TABLE 10A); conditions: OD in absence of drug 1.1; drug concentration per TABLE 11; read after 30 minutes
Experimental: (§5) For certain of the PDZ proteins and PL proteins shown to bind together and for which Kd values had been obtained, additional testing was conducted to determine whether certain pharmaceutical compounds would act to antagonize or agonize the interactions. Assays were conducted as for the G′ assay described supra both in the presence and absence of test compound, except that 50 ul of a 10 uM solution of the biotinylated PL peptide is allowed to react with the surface bearing the PDZ-domain polypeptide instead of a 20 uM solution as specified in step (2) of the assay.
(§6) In both tables, the first column (left to right) entitled “PDZ domain” lists the gene name of GST-PDZ domain fusion (see TABLE 9). Entries having two numbers separated by a slash indicate which PDZ domain was utilized. For example, in TABLE 10A, the entry for ZO-3 is 1/3. This means that PDZ domain 1 of 3 was used.
(§7) The second column labeled “PL” indicates the name of the PDZ ligand (see TABLES 10A and 10B) interacting with the PDZ domain. The third column entitled “Drug” lists the common or trade name of pharmaceutical compound tested and found to modulate the specific PDZ-PL interaction (suppliers and chemical information are listed in TABLE 11). The final column with the heading “Change in OD” indicates the change in absorbance at 450 nm of the assay in the absence (first number) or presence (second number) of chemical compound.
(§8) Many FDA approved drugs have unknown mechanism of function. It is quite possible that some of these drugs function by disrupting or increasing PDZ/PL interactions. This possibility was examined by using the ‘G Assay’ (Example 3 section D). FDA approved drugs were incubated in the presence of the labeled peptide and compared to the same interaction without drug to determine if there was an effect on specific PDZ:PL interactions (drugs added with peptide at step 9 in Example 3D). The primary focus of this experiment was on drugs involved in treatment of depression (amitriptyline, desipramine, trimipramine, benztropine, and nortryptilline) and epilepsy (valproic acid). No modes of action are known for these drugs.
(§9) Therapeutic dose was determined by guidelines given in the Physician's Desk Reference and in the assay, 200 times this amount was used. If a dosage range was given, the upper end of the range was used. Each interaction listed in TABLES 10A & B was tested in the ‘G Assay’ (see Example 3) against each of the drugs listed in TABLE 11. The concentration of GST-fusion protein and peptide used in the assay represent the Kd and were determined by titration. These values can be found in TABLE 7. The drugs were added to the peptide before addition to the well containing the PDZ protein. Otherwise, the assay was carried out as described and read at 450 nm after 30 minutes of developing. For the sequences of the PDZs and PLs used in these tests, see TABLES 8 & 9.
(§10) List of interactions and therapeutics for which a modulation of binding was observed. Concentrations at which the GST-PDZ fusion protein and labeled peptide were used can be found in Table 7 or Table 12.

[12] = target: T10, ZO-2 (1/3) : DNAM (22L) (Homo sapiens, UniProt Q9UDY2); assay: G assay with FDA approved drug (Example 7, TABLE 10B)
T10 construct: made in house; host or cells: E. coli (DH5α, BL21 or JM109)
T10 sequence (Q9UDY2 27-122): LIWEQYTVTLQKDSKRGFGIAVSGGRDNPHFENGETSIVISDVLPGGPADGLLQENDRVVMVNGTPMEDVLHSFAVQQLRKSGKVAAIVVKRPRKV
Experimental: as §5, §6, §7, §8, §9, §10

Classification [1]: 5 (A450 nm of 4 more than 2× repeated)
Classification [2]: 4 (A450 nm 3-4)
Classification [3]: 5 (A450 nm of 4 more than 2× repeated)
Classification [4]: 4 (A450 nm 3-4)
Compound: A2AB_HUMAN (modified) (Biotin-QDFRRAFRRILARPWTQTAW; not fully specified)
Classification ([5]; PDZ BAI-1, PDZ Domain 2): 4 (A450 nm 3-4)
Classification ([5]; PDZ BAI-1, PDZ Domain 4): 5 (A450 nm of 4 more than 2× repeated)

Classification [6]: 1 (A450 nm 0-1)
Classification [7]: 1 (A450 nm 0-1)
Classification [8]: 1 (A450 nm 0-1)
Classification [9]: 2 (A450 nm 1-2)
Classification [10]: 1 (A450 nm 0-1)
Compound: HPTDITGLPNLSDPSVSTVV (Biotin-HPTDITGLPNLSDPSVSTVV) [NMDA R2C]

Compound: CC(CN(C)C)CN1c2ccccc2CCc2ccccc21 (centres unmarked) [Trinipramine, TRIMIPRAMINE MALEATE]
Change in OD: absorbance at 450 nm in presence of drug [11]: 1.1 to 2.2

Compound: CNCCC=C1c2ccccc2CCc2ccccc21 [Nortryptilline, NORTRIPTYLINE HYDROCHLORIDE]
CHANGE IN OD: absorbance at 450 nm in presence of drug ([12]; OD in absence of drug 2.1, drug concentration per TABLE 11, read after 30 minutes): 2.1 to 0.5
antagonistic effect, binding relative to absence of drug ([12]; ZO-2 domain 1 and DNAM-1): 4.2 fold
